{"source": "paper PMC9640706", "about": "“Structure of the IscB–ωRNA ribonucleoprotein complex, the likely ancestor of CRISPR-Cas9”", "binders": {"B1": {"name": "ωRNA (233 nt) + partially double-stranded target DNA (TS 49 nt, NTS 14 nt) (mixed)", "RNA": "GGAAUUGUGAGCGGAUAACAAUUCCCCGGCUCUUCCAACUUUAUGGUUGCGACCGUAGGUUGAAAGAGCACAGGCUGAGACAUUCGUAAGGCCGAAAGACCGGACGCACCCUGGGAUUUCCCCAGUCCCCGGAACUGCAUAGCGGAUGCCAGUUGAUGGAGCAAUCUAUCAGAUAAGCCAGGGGGAACAAUCACCUCUCUGUAUCAGAGAGAGUUUUACAAAAGGAGGAACGG", "DNA 1": "GAATGGTTTTCTTCGGGGAATTGTTATCCGCTCACAATTCCTTAGAAAA", "DNA 2": "GAAGAAAACCATTC"}}, "molecular_target": "T1, OgeuIscB ΔHNH (human gut metagenome (OgeuIscB), UniProt PDB:7XHT_4 1-198+=GGSG+296-496, internal_change)", "T1 sequence": "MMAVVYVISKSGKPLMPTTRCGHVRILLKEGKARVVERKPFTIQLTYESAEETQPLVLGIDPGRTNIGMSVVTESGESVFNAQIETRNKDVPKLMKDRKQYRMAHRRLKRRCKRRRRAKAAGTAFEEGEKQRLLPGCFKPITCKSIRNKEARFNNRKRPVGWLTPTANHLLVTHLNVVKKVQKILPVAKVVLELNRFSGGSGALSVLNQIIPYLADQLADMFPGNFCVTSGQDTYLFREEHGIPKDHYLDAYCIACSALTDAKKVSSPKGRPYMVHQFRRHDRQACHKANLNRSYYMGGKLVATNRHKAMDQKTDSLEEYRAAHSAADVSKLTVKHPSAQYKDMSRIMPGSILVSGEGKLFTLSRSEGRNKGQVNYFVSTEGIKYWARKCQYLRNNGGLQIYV", "assay": "cryo-EM (2.6 Å); Mg2+ bound in RuvC site; Purification: 20 mM Tris-HCl pH 8.0, NaCl gradient 0.075-2 M (heparin), 10% glycerol, 5 mM MgCl2, 2 mM DTT; cryo-EM sample buffer not in the material", "details": "protein: recombinant; strand 1 ωRNA, strand 2 TS, strand 3 NTS; NTS pairs with TS nt 1-14; ωRNA guide nt 1-27 complementary to TS nt 15-41 (17 bp resolved); TS 3' tail 8 nt", "data": [{"binder": "B1", "values": [{"measurement": "binding result", "value": "binds"}]}]}
